Results published in paper PMC7327521 (Journal of Molecular Biology, 2020).
Square brackets hold non-standard residues; d marks the D form. Ends that are not written are not given here. pY = N[C@@H](Cc1ccc(OP(=O)(O)O)cc1)C(=O)O; pT = C[C@@H](OP(=O)(O)O)[C@H](N)C(=O)O; pS = N[C@@H](COP(=O)(O)O)C(=O)O

Biological target: T1, tandem SH2 domain of C. glabrata Spt6 (Spt6-tSH2) (C. glabrata, UniProt Q6FLB1 1250-1444)
T1 sequence (looked up): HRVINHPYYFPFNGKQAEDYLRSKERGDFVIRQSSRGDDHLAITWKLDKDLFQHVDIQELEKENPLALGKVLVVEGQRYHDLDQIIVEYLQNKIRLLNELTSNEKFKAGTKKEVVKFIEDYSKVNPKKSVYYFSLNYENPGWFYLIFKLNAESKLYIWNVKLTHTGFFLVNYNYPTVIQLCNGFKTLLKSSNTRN
Test: fluorescence polarisation

Binder | Kd [µM]
{5,6‑FAM}-PSYSP[pT]SPSYSP[pT]SPS [(pT4-CTD)2] | 7.2
{5,6‑FAM}-PS[pY]SPTSPS [(pY1-CTD)1] | 38.7
{5,6‑FAM}-PS[pY]SPTSPSYSPTSPS [PS(pYSPTSPS)(YSPTSPS)] | 45.4
{5,6‑FAM}-PSYSPTSPS[pY]SPTSPS [PS(YSPTSPS)(pYSPTSPS)] | 36.8
{5,6‑FAM}-PS[pY]SPT[pS]PS[pY]SPT[pS]PS [(pY1pS5-CTD)2] | 0.3
DDDEDGYNPYTL [Nrd1 Interaction Motif (NIM) peptide from Trf4] | 3.3
{5,6‑FAM}-PS[pY][pS]PTSPS[pY][pS]PTSPS [(pY1pS2-CTD)2] | 0.3
{5,6‑FAM}-PSY[pS]P[pT]SPSYSPTSPS [PS(YpSPpTSPS)(YSPTSPS)] | 5.7
